In patent publication US12097241B2, “Methods of treating kidney failure, and/or improving or stablizing renal function using modified relaxin polypeptides” (BRISTOL-MYERS SQUIBB COMPANY, priority 2017, dated 2024):
Entries after “also recorded” stand apart in the source; their conditions may differ.

Columns and labels:
[1] = In vivo pharmacokinetic (PK) studies in rats; design: species or system Sprague-Dawley rats; conditions: rat, male Sprague-Dawley rats, single SC dose 1.0 mg/kg, serum ELISA; for AUC(0-inf): read-out: Rat PK AUC Total; for level at time molar at 24 h: read-out: Rat PK C24
Method in brief: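 Male Sprague-Dawley rats (n=3) given a single 1 mg/kg IV or SC dose of relaxin constructs in 20 mM histidine, 750 mM NaCl, pH 6.0; jugular serum sampled to 72 h. Serum relaxin by ELISA; Cmax, AUCinf, C24 and half-life from non-compartmental analysis of individual profiles.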

[2] = system: renal tubular epithelial cells; assay: Rat toxicity studies, kidney histopathology; type: in vivo, Sprague Dawley rats; conditions: rats
Protocol: FIGS. 7A-7D. PEG-related renal cortical tubule epithelial vacuolation in female Sprague Dawley rats. Kidney from rats treated subcutaneously (SQ) once a day with vehicle or relaxin analogs. […] FIG. 7A: Vehicle (150 mM Arg in 10 mM citrate buffer pH 5.5) SQ for 10 days. FIG. 7B: AQ1-PEG36-Glu-C13-COOH (1.5 kD PEG) SQ at 40 mg/kg/day for 7 days. FIG. 7C: AQ1-20-kDa-PEG (20 kD PEG) SQ at 15 mg/kg/day for 10 days. FIG. 7D: AQ1-GGGGS-Glu^γ (SEQ ID NO: 139)-C14-COOH SQ at 40 mg/kg for 7 days. Magnification 40×, H&E.
AQ1-20 kDa-PEG was given to rats by subcutaneous administration at doses of 1, 5, and 15 mg/kg/day for 10 days. Following the final dose animals were euthanized, dissected, and kidney histopathology was performed. […] In contrast, vacuoles were not observed in renal tubular epithelial cells of rats dosed with Vehicle (150 mM Arg in 10 mM citrate buffer pH 5.5) subcutaneously for 10 days (FIG. 7A).
AQ1-PEG36-Glu-C13-COOH was given to rats by subcutaneous administration at doses of 10 and 40 mg/kg/day for 7 days. Following the final dose animals were euthanized, dissected, and kidney histopathology was performed.
AQ1-GGGGS-Glu^γ (SEQ ID NO: 139)-C14-COOH was given to rats by subcutaneous administration at doses of 5, 20, and 40 mg/kg/day for 7 days. Following the final dose animals were euthanized, dissected, and kidney histopathology was performed.

Solubility observations = conditions: data not shown
[3] = in vivo; cited from earlier work

Compound | AUC(0-inf) [1] [µM·h] | level at time molar at 24 h [1] [nM] | vacuoles in renal tubular epithelial cells ([2]; subcutaneous 5, 20 and 40 mg/kg/day for 7 days, listed as AQ1-GGGGS-Glu^γ (SEQ ID NO: 139)-C14-COOH) | solubility profile (Solubility observations) | vacuoles in renal tubular epithelial cells ([2]; subcutaneous 10 and 40 mg/kg/day for 7 days) | first-phase pharmacokinetic half-life [3] [min]
CC[C@H](C)[C@@H]1NC(=O)[C@H](C)NC(=O)[C@H]([C@@H](C)CC)NC(=O)[C@H](CCC(N)=O)NC(=O)[C@H](C)NC(=O)[C@H](CCCNC(=N)N)NC(=O)[C@H](C(C)C)NC(=O)[C@H](CC(C)C)NC(=O)[C@H](CCC(=O)O)NC(=O)[C@H](CCCNC(=N)N)NC(=O)CNC(=O)[C@@H](NC(=O)[C@H](CC(C)C)NC(=O)[C@H](CCCCN)NC(=O)[C@@H](NC(=O)[C@@H](NC(=O)[C@H](CCC(=O)O)NC(=O)[C@H](CCC(=O)O)NC(=O)[C@H](CCSC)NC(=O)[C@H](Cc2c[nH]c3ccccc23)NC(=O)[C@H](CO)NC(=O)[C@H](C)N)C(C)C)[C@@H](C)CC)CSSC[C@@H]2NC(=O)[C@@H](NC(=O)[C@H](CCCCN)NC(=O)[C@H](CC(N)=O)NC(=O)[C@H](C)NC(=O)[C@H](CC(C)C)NC(=O)[C@H](C)NC(=O)[C@H](CO)NC(=O)[C@H](Cc3ccc(O)cc3)NC(=O)[C@H](CC(C)C)NC(=O)[C@@H](N)Cc3ccc(/C(C)=N/OCCNC(=O)CNC(=O)CNC(=O)CNC(=O)CNC(=O)[C@H](CO)NC(=O)CC[C@H](NC(=O)CCCCCCCCCCCCCC(=O)O)C(=O)O)cc3)CSSC[C@H](NC(=O)CNC(=O)[C@H](C(C)C)NC(=O)[C@H](Cc3c[nH]cn3)NC2=O)C(=O)N[C@@H]([C@@H](C)O)C(=O)N[C@@H](CCCCN)C(=O)N[C@@H](CCCNC(=N)N)C(=O)N[C@@H](CO)C(=O)N[C@@H](CC(C)C)C(=O)N[C@@H](C)C(=O)N[C@@H](CCCNC(=N)N)C(=O)N[C@@H](Cc2ccccc2)C(=O)N[C@H](C(=O)O)CSSC[C@@H](C(=O)NCC(=O)N[C@@H](CCSC)C(=O)N[C@@H](CO)C(=O)N[C@H](C(=O)N[C@@H](Cc2c[nH]c3ccccc23)C(=O)N[C@@H](CO)C(=O)O)[C@@H](C)O)NC1=O [AQ1-GGGGS-Glu^γ-C14-COOH] | 2.31 | 17 | Vacuoles are not observed; also recorded: no evidence of test-article related vacuoles | favorable solubility profile |  | 
CC[C@H](C)[C@@H]1NC(=O)[C@H](C)NC(=O)[C@H]([C@@H](C)CC)NC(=O)[C@H](CCC(N)=O)NC(=O)[C@H](C)NC(=O)[C@H](CCCNC(=N)N)NC(=O)[C@H](C(C)C)NC(=O)[C@H](CC(C)C)NC(=O)[C@H](CCC(=O)O)NC(=O)[C@H](CCCNC(=N)N)NC(=O)CNC(=O)[C@@H](NC(=O)[C@H](CC(C)C)NC(=O)[C@H](CCCCN)NC(=O)[C@@H](NC(=O)[C@@H](NC(=O)[C@H](CCC(=O)O)NC(=O)[C@H](CCC(=O)O)NC(=O)[C@H](CCSC)NC(=O)[C@H](Cc2c[nH]c3ccccc23)NC(=O)[C@H](CO)NC(=O)[C@H](C)N)C(C)C)[C@@H](C)CC)CSSC[C@@H]2NC(=O)[C@@H](NC(=O)[C@H](CCCCN)NC(=O)[C@H](CC(N)=O)NC(=O)[C@H](C)NC(=O)[C@H](CC(C)C)NC(=O)[C@H](C)NC(=O)[C@H](CO)NC(=O)[C@H](Cc3ccc(O)cc3)NC(=O)[C@H](CC(C)C)NC(=O)[C@@H](N)Cc3ccc(/C(C)=N/OCCNC(=O)CCOCCOCCOCCOCCOCCOCCOCCOCCOCCOCCOCCOCCOCCOCCOCCOCCOCCOCCOCCOCCOCCOCCOCCOCCOCCOCCOCCOCCOCCOCCOCCOCCOCCOCCOCCOCCNC(=O)CC[C@H](NC(=O)CCCCCCCCCCCCC(=O)O)C(=O)O)cc3)CSSC[C@H](NC(=O)CNC(=O)[C@H](C(C)C)NC(=O)[C@H](Cc3c[nH]cn3)NC2=O)C(=O)N[C@@H]([C@@H](C)O)C(=O)N[C@@H](CCCCN)C(=O)N[C@@H](CCCNC(=N)N)C(=O)N[C@@H](CO)C(=O)N[C@@H](CC(C)C)C(=O)N[C@@H](C)C(=O)N[C@@H](CCCNC(=N)N)C(=O)N[C@@H](Cc2ccccc2)C(=O)N[C@H](C(=O)O)CSSC[C@@H](C(=O)NCC(=O)N[C@@H](CCSC)C(=O)N[C@@H](CO)C(=O)N[C@H](C(=O)N[C@@H](Cc2c[nH]c3ccccc23)C(=O)N[C@@H](CO)C(=O)O)[C@@H](C)O)NC1=O [AQ1-PEG36-Glu-C13-COOH] | 1 | 9.7 |  |  | marked cortical tubular vacuolation; also recorded: Vacuoles were observed | 
Serelaxin |  |  |  |  |  | 5 to 15
